Experimental data taken from PMC12655336, “Study on the High-Efficiency Expression of Horseradish Peroxidase in Pichia pastoris” (Molecules, 2025).

B1: Degly-HRP (Armoracia rusticana) (protein)
chain: QLTPTFYDNSCPNVSNIVRDTIVNELRSDPRIAASILRLHFHDCFVNGCDASILLDNTTSFRTEKDAFGNANSARGFPVIDRMKAAVESACPRTVSCADLLTIAAQQSVTLAGGPSWRVPLGRRDSLQAFLDLANANLPAPFFTLPQLKDSFRNVGLNRSSDLVALSGGHTFGKNQCRFIMDRLYNFSNTGLPDPTLNTTYLQTLRGLCPLNGNLSALVDFDLRTPTIFDNKYYVNLEEQKGLIQSDQELFSSPNATDTIPLVRSFANSTQTFFNAFVEAMDRMGNITPLTGTQGQIRLNCRVVNSNS
notes: same HRP-C from Pichia pastoris GS115, His-tagged, Ni-NTA purified; deglycosylated with EndoH (O-glycans may remain)
B2: HRP-C (W-HRP) (Armoracia rusticana) (protein)
chain: B1 chain
notes: codon-optimised synthetic HRP-C gene, secreted from Pichia pastoris GS115 with MF4I signal peptide, His-tagged, Ni-NTA purified; glycosylated (not EndoH treated)

Legend:
[1] = substrate: CCn1c(=NN=c2sc3cc(S(=O)(=O)O)ccc3n2CC)sc2cc(S(=O)(=O)O)ccc21; assay: spectrophotometric oxidation, Michaelis-Menten fit; type: biochemical, Armoracia rusticana; details: 1 mM H2O2, 37 °C, 415 nm, deglycosylated enzyme
From the text: (§1) spectrophotometric oxidation, Michaelis-Menten fit on Degly-HRP

[2] = substrate: Cc1cc(-c2cc(C)c(N)c(C)c2)cc(C)c1N; assay: spectrophotometric oxidation, Michaelis-Menten fit; type: biochemical, Armoracia rusticana; details: 1 mM H2O2, 37 °C, 450 nm, deglycosylated enzyme
From the text: as §1

[3] = substrate: Nc1ccccc1N; assay: spectrophotometric oxidation, Michaelis-Menten fit; type: biochemical, Armoracia rusticana; details: 1 mM H2O2, 37 °C, 492 nm, deglycosylated enzyme
From the text: as §1

purified protein = substrate: COc1ccccc1O; assay: purified protein; details: 1 mM H2O2, 37 °C, 436 nm
[4] = substrate: CCn1c(=NN=c2sc3cc(S(=O)(=O)O)ccc3n2CC)sc2cc(S(=O)(=O)O)ccc21; assay: spectrophotometric oxidation, Michaelis-Menten fit; type: biochemical, Armoracia rusticana; details: 1 mM H2O2, 37 °C, 415 nm, glycosylated enzyme
From the text: (§2) spectrophotometric oxidation, Michaelis-Menten fit on HRP-C (W-HRP)

[5] = substrate: Nc1ccccc1N; assay: spectrophotometric oxidation, Michaelis-Menten fit; type: biochemical, Armoracia rusticana; details: 1 mM H2O2, 37 °C, 492 nm, glycosylated enzyme
From the text: as §2

Protein	Km [1]	kcat [1]	Km [2]	kcat [2]	Km [3]	kcat [3]	Km (purified protein; deglycosylated enzyme)	kcat (purified protein; deglycosylated enzyme)	kcat (purified protein; glycosylated enzyme)	Km [4]	kcat [4]	Km [5]	kcat [5]
B1	45.35 µM	238 s⁻¹	96 µM	238 s⁻¹	41 µM	745 s⁻¹	20.59 µM	270 s⁻¹	–	–	–	–	–
B2	–	–	–	–	–	–	–	–	291 s⁻¹	48.55 µM	267 s⁻¹	36 µM	747 s⁻¹
